According to PMC10042849:

Target: EndoS2_(E186L), catalytically inactive EndoS2 (Streptococcus pyogenes (serotype M49)) (UniProt T1WGN1)
Test: NMR titration; methyl-TROSY (1H,13C HMQC) spectra of MILV methyl-labelled enzyme (45-128 µM) titrated with ligand; 2D lineshape fitting with TITAN, two-state binding model; 20 mM Tris-d11 pH* 7.50, 50 mM NaCl in D2O; 600 MHz, 298 K

Question: For “Fc region of the IgG1 monoclonal antibody Rituximab (Fc-Rituximab) (from UniProt P01857 1-328) (domain or fragment)”, which Kd is on record?
Answer: Its Kd is 3.1 µM.

Question: What about the koff of the same substance?
Answer: The koff was 4 s⁻¹.

Question: What about the kon of the same substance?
Answer: The kon was 1.3e+06 M⁻¹ s⁻¹.
